Results from IntAct's records for PubMed 20704562.

B1: Transmembrane protease serine 6 (Homo sapiens), Q8IU80 (parent)
chain: MLLLFHSKRMPVAEAPQVAGGQGDGGDGEEAEPEGMFKACEDSKRKARGYLRLVPLFVLLALLVLASAGVLLWYFLGYKAEVMVSQVYSGSLRVLNRHFSQDLTRRESSAFRSETAKAQKMLKELITSTRLGTYYNSSSVYSFGEGPLTCFFWFILQIPEHRRLMLSPEVVQALLVEELLSTVNSSAAVPYRAEYEVDPEGLVILEASVKDIAALNSTLGCYRYSYVGQGQVLRLKGPDHLASSCLWHLQGPKDLMLKLRLEWTLAECRDRLAMYDVAGPLEKRLITSVYGCSRQEPVVEVLASGAIMAVVWKKGLHSYYDPFVLSVQPVVFQACEVNLTLDNRLDSQGVLSTPYFPSYYSPQTHCSWHLTVPSLDYGLALWFDAYALRRQKYDLPCTQGQWTIQNRRLCGLRILQPYAERIPVVATAGITINFTSQISLTGPGVRVHYGLYNQSDPCPGEFLCSVNGLCVPACDGVKDCPNGLDERNCVCRATFQCKEDSTCISLPKVCDGQPDCLNGSDEEQCQEGVPCGTFTFQCEDRSCVKKPNPQCDGRPDCRDGSDEEHCDCGLQGPSSRIVGGAVSSEGEWPWQASLQVRGRHICGGALIADRWVITAAHCFQEDSMASTVLWTVFLGKVWQNSRWPGEVSFKVSRLLLHPYHEEDSHDYDVALLQLDHPVVRSAAVRPVCLPARSHFFEPGLHCWITGWGALREGGPISNALQKVDVQLIPQDLCSEVYRYQVTPRMLCAGYRKGKKDACQGDSGGPLVCKALSGRWFLAGLVSWGLGCGRPNYFGVYTRITGVISWIQQVVT
partner: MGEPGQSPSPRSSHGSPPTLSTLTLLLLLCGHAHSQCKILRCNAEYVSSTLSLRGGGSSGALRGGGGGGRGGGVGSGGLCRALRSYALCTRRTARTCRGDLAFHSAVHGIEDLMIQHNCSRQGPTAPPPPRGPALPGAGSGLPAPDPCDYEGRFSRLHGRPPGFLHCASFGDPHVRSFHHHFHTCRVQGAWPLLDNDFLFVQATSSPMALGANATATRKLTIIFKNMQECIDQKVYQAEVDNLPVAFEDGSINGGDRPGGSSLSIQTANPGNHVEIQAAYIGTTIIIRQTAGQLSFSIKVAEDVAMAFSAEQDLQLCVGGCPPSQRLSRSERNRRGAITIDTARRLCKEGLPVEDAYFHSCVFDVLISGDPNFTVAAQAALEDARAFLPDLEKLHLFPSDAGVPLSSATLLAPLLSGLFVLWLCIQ

Variants of: B1
Details: with rgmc_human HJV

| Variant | effect of a mutation on the interaction |
| --- | --- |
| Y141C | with no effect |
